According to US8951752B2, “N-demethyase genes and uses thereof” (priority 2011, dated 2015):

Key:
Type in all cases: biochemical, Pseudomonas putida CBB5
[1] = molecular target: T1, cytochrome c reductase (Ccr) (Pseudomonas putida, UniProt H9N291); assay: NAD(P)H:cytochrome c oxidoreductase activity
T1 construct: 87 μM bovine cytochrome c (type Ill; Sigma), and 1-20 μg CBB5 protein (depending on purity); made in house; host or cells: column fractions of the natural strain Pseudomonas putida CBB5; not recombinant
T1 sequence (H9N291 whole entry): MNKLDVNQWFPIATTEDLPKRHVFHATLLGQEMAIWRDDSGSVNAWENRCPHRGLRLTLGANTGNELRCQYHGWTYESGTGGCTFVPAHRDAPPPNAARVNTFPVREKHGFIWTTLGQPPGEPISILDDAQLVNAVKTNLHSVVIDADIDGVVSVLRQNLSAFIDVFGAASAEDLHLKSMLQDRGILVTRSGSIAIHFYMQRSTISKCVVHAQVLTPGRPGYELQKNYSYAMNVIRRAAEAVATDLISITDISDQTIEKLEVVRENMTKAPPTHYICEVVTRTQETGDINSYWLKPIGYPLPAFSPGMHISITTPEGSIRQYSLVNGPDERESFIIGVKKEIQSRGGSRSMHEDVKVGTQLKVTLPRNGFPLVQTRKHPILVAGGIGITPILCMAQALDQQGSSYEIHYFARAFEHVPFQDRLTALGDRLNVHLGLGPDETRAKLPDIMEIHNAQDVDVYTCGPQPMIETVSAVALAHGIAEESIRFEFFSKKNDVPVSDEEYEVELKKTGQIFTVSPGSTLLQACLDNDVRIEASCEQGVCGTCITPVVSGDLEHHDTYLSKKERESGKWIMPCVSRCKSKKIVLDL
Description: Enzyme Activity Assays. NADH:cytochrome c oxidoreductase (cytochrome c reductase, Ccr) activity was determined as described by Ueda et al. (1972). A typical 1-mL reaction contained 300 μM NADH, 87 μM bovine cytochrome c (type Ill; Sigma), and 1-20 μg CBB5 protein (depending on purity) in 50 mM KPi buffer. The activity was determined by monitoring the increase in absorbance at 550 nm due to reduction of […] cytochrome c at 30° C. An extinction coefficient of 21,000 M^−1 cm^−1 for reduced minus oxidized cytochrome c was used for quantitating the activity. One unit of activity was defined as one μmol of cytochrome c reduced per minute.

[2] = substrate: Cn1c(=O)[nH]c2ncn(C)c2c1=O; assay: Methylxanthine N-demethylase activity assay with purified Ndm plus partially purified Ccr; conditions: other: saturating Ccr, 50 μM Fe2+, 30° C., 50 mM KPi pH 7.5
Description: (§1) Methylxanthine N-demethylase activity assay contained, in 1-mL total volume, 0.5 mM methylxanthine, 1 mM NADH, 50 μM Fe(NH4)2(SO4)2, and an appropriate amount of Ndm (0.08-7.5 mg protein, depending on purity of the protein) in 50 mM KPi buffer. Approximately 4 U of partially purified Ccr was added to reaction mixture when assaying Ndm in Phenyl Sepharose and Q Sepharose eluant-fractions (Ccr was not added to the enzyme reaction mixture when assaying Ndm activity in DEAE Sepharose eluant-fractions because Ccr co-eluted with Ndm). The reaction mixture was incubated at 30° C. with 300 rpm shaking on an incubating microplate shaker (VWR). Periodically, a small aliquot was sampled from the reaction mixture and mixed with equal volume of acetonitrile for quantifying concentrations of methylxanthines and N-demethylated products by HPLC. One unit of N-demethylase activity was defined as the consumption of one μmole methylxanthine per minute. When Ndm was coupled with the reductase and ferredoxin components of naphthalene dioxygenase of Pseudomonas sp. strain 9816 (Haigler & Gibson, 1990a; Haigler & Gibson, 1990b), 30 and 100 μg of the respective proteins were used. Spinach ferredoxin reductase and ferredoxin were also substituted for Ccr as described by Subramanian et al. (1979).
(§2) Determination of Kinetic Parameters. Apparent kinetic parameters of Ndm were determined by measuring the initial rate of disappearance (vo) of paraxanthine or 7-methylxanthine in 50 mM KPi buffer (pH 7.5) at 30° C. The paraxanthine and 7-methylxanthine concentrations ([S]) used in these experiments were from 20 to 500 μM. Substrates were incubated with Ndm and Ccr under standard conditions for 15 minutes. At 1, 5, 10, and 15 minutes, samples were removed from the reaction mixtures to quantitate substrate concentrations by HPLC. Plots of substrate concentrations against time were used to determine the initial rates of disappearance of substrates which were linear over 15 minutes. The apparent kinetic parameters were determined from Michaelis-Menten plots of Vo against [S] fitted with the equation
(§3) Determination of Oxygen Requirement. Oxygen consumption by Ndm during N-demethylation of paraxanthine was determined in a closed reaction vessel equipped with a Clarke-type oxygen electrode (Digitial Modell 0, Rank Brothers Ltd., Cambridge, England). […] After 13 minutes, a 100-μL aliquot was withdrawn from the reaction, immediately mixed with equal volume of acetonitrile to stop the enzyme reaction, and analyzed for N-demethylation product by HPLC. Background oxygen consumption, possibly due to NADH oxidase enzyme activity in the partially purified Ccr, was quantitated in control reactions containing all reaction components except paraxanthine. […]

[3] = substrate: Cn1cnc2[nH]c(=O)[nH]c(=O)c21; assay: as above; conditions: other: saturating Ccr, 50 μM Fe2+, 30° C., 50 mM KPi pH 7.5
Description: as §1, §2, §3

[4] = substrate: Cn1c(=O)[nH]c2nc[nH]c2c1=O; assay: Methylxanthine N-demethylase assay and kinetics, NdmA-His6 with His6-NdmD; conditions: other: NdmA-His6, 30° C., pH 7.5, ∞ where no activity
Description: (§4) Methylxanthine N-demethylase activity assay contained, in 1-ml total volume, 0.5 mM methylxanthine, 1 mM NADH, 50 μM Fe(NH4)2(SO4)2, and an appropriate amount of NdmA-His6 or NdmB-His6 (7.4 μg-2.5 mg protein depending on substrate specificity) in 50 mM KPi buffer (pH 7.5). Approximately 4 U of partially purified reductase, prepared as described previously (Summers et al., 2011) or 59 U of purified His6-NdmD was added to reaction mixture. Catalase from bovine liver (4,000 U) was also added to reactions containing His6-NdmD. The reaction mixture was incubated at 30° C. with 300 rpm shaking on an incubating microplate shaker (VWR, Radnor, Pa.). Periodically, a small aliquot was sampled from the reaction mixture and mixed with equal volume of acetonitrile for quantifying concentrations of methylxanthines and N-demethylated products by HPLC. One unit of N-demethylase activity was defined as the consumption of one […] methylxanthine per minute.
(§5) Apparent kinetic parameters of NdmA-His6 and NdmB-His6 were determined by measuring the initial rate of disappearance (vo) of methylxanthines in 50 mM KPi buffer (pH 7.5) at 30° C. The initial substrate concentrations (ESI) used in these experiments were from 25 to 500 μM. Substrates were incubated with His6-NdmD plus either NdmA-His6 or NdmB-His6 under standard conditions for 15 minutes. At 1, 5, 10, and 15 minutes, samples were removed from the reaction mixtures to quantitate substrate concentrations by HPLC. Plots of substrate concentrations against time were used to determine the initial rates of disappearance of substrates which were linear over 15 minutes. The apparent kinetic parameters were determined from Michaelis-Menten plots of vo against [S] fitted with the equation

[5] = substrate: Cn1c(=O)[nH]c2ncn(C)c2c1=O; assay: as above; conditions: other: NdmA-His6, 30° C., pH 7.5, ∞ where no activity
Description: as §4, §5

[6] = substrate: Cn1c(=O)c2[nH]cnc2n(C)c1=O; assay: as above; conditions: other: NdmA-His6, 30° C., pH 7.5, ∞ where no activity
Description: as §4, §5

[7] = substrate: Cn1c(=O)c2c(ncn2C)n(C)c1=O; assay: as above; conditions: other: NdmA-His6, 30° C., pH 7.5, ∞ where no activity
Description: as §4, §5

[8] = substrate: Cn1c(=O)[nH]c(=O)c2[nH]cnc21; assay: Methylxanthine N-demethylase assay and kinetics, NdmB-His6 with His6-NdmD; conditions: other: NdmB-His6, 30° C., pH 7.5, ∞ where no activity
Description: as §4, §5

[9] = substrate: Cn1c(=O)c2[nH]cnc2n(C)c1=O; assay: as above; conditions: other: NdmB-His6, 30° C., pH 7.5, ∞ where no activity
Description: as §4, §5

[10] = substrate: Cn1c(=O)c2c(ncn2C)n(C)c1=O; assay: as above; conditions: other: NdmB-His6, 30° C., pH 7.5, ∞ where no activity
Description: as §4, §5

[11] = substrate: Cn1cnc2c1c(=O)[nH]c(=O)n2C; assay: as above; conditions: other: NdmB-His6, 30° C., pH 7.5, ∞ where no activity
Description: as §4, §5

Molecule: NC(=O)C1=CN([C@@H]2O[C@H](COP(=O)(O)OP(=O)(O)OC[C@H]3O[C@@H](n4cnc5c(N)ncnc54)[C@H](OP(=O)(O)O)[C@@H]3O)[C@@H](O)[C@H]2O)C=CC1 [NADPH]
- Ccr activity relative to that with NADH [1]: 22%

B1: N-demethylase (Ndm: NdmA and NdmB subunits) (Pseudomonas putida) (protein)
chain 1: MEQAIINDEREYLRHFWHPVCTVTELEKAHPSSLGPLAVKLLNEQLVVAKLGDEYVAMRDRCAHRSAKLSLGTVSGNRLQCPYHGWQYDTHGACQLVPACPNSPIPNKAKVDRFDCEERYGLIWIRLDSSFDCTEIPYFSAANDPRLRIVIQEPYWWDATAERRWENFTDFSHFAFIHPGTLFDPNNAEPPIVPMDRFNGQFRFVYDTPEDMAVPNQAPIGSFSYTCSMPFAINLEVSKYSSSSLHVLFNVSCPVDSHTTKNFLIFAREQSDDSDYLHIAFNDLVFAEDKPVIESQWPKDAPADEVSVVADKVSIQYRKWLRELKEAHKEGSQAFRSALLDPVIESDRSYI
chain 2: MKEQLKPLLEDKTYLRHFWHPVCTLNEFERANASGHGPMGVTLLGEKLVLARLNSKIIAAADRCAHRSAQLSIGRVCSNAGKDYLECPYHGWRYDEAGACQLIPACPDKSISPRAKISSFDCEVKYDIVWVRLDNSFDCTQIPYLSDFDNPDMQVIVADSYIWETVAERRWENFTDFSHFAFVHPGTLYDPFFASHPTVYVNRVDGELQFKLAPPREMKGIPPEAPMGDFTYRCTMPYSVNLEIKLWKDDSRFVLWTTASPVDNKSCRNFMIIVREKDNQPDHMHLAFQKRVLDEDQPVIESQWPLEIQTSEVSVATDKISVQFRKWHKELSLSAVEGREAFRDSVLTNVIEEEQ
notes: lane 3, natural Ndm purified from P. putida CBB5; made in house; host or cells: purified from the natural strain Pseudomonas putida CBB5 (DEAE, Phenyl and Q Sepharose); not recombinant
- Km [2]: 50.4 ± 6.8 µM
- kcat [2]: 16.2 ± 0.6 min⁻¹
- Km [3]: 63.8 ± 7.5 µM
- kcat [3]: 94.8 ± 3.0 min⁻¹

B2: NdmA-His6 (Pseudomonas putida) (protein)
chain: MEQAIINDEREYLRHFWHPVCTVTELEKAHPSSLGPLAVKLLNEQLVVAKLGDEYVAMRDRCAHRSAKLSLGTVSGNRLQCPYHGWQYDTHGACQLVPACPNSPIPNKAKVDRFDCEERYGLIWIRLDSSFDCTEIPYFSAANDPRLRIVIQEPYWWDATAERRWENFTDFSHFAFIHPGTLFDPNNAEPPIVPMDRFNGQFRFVYDTPEDMAVPNQAPIGSFSYTCSMPFAINLEVSKYSSSSLHVLFNVSCPVDSHTTKNFLIFAREQSDDSDYLHIAFNDLVFAEDKPVIESQWPKDAPADEVSVVADKVSIQYRKWLRELKEAHKEGSQAFRSALLDPVIESDRSYI
notes: made in house; host or cells: E. coli BL21(DE3)
- Km [4]: 266.6 µM
- kcat [4]: 0.26 s⁻¹
- kcat/Km [4]: 1000 M⁻¹ s⁻¹
- Km [5]: 52.9 µM
- kcat [5]: 2.21 s⁻¹
- kcat/Km [5]: 41700 M⁻¹ s⁻¹
- Km [6]: 9.1 µM
- kcat [6]: 1.38 s⁻¹
- kcat/Km [6]: 152000 M⁻¹ s⁻¹
- Km [7]: 37.6 µM
- kcat [7]: 3.21 s⁻¹
- kcat/Km [7]: 85000 M⁻¹ s⁻¹

B3: NdmB-His6 (Pseudomonas putida) (protein)
chain: MKEQLKPLLEDKTYLRHFWHPVCTLNEFERANASGHGPMGVTLLGEKLVLARLNSKIIAAADRCAHRSAQLSIGRVCSNAGKDYLECPYHGWRYDEAGACQLIPACPDKSISPRAKISSFDCEVKYDIVWVRLDNSFDCTQIPYLSDFDNPDMQVIVADSYIWETVAERRWENFTDFSHFAFVHPGTLYDPFFASHPTVYVNRVDGELQFKLAPPREMKGIPPEAPMGDFTYRCTMPYSVNLEIKLWKDDSRFVLWTTASPVDNKSCRNFMIIVREKDNQPDHMHLAFQKRVLDEDQPVIESQWPLEIQTSEVSVATDKISVQFRKWHKELSLSAVEGREAFRDSVLTNVIEEEQ
notes: as for B2
- Km [8]: 22.4 ± 5.2 µM
- kcat [8]: 0.528 ± 0.025 s⁻¹
- kcat/Km [8]: 23300 M⁻¹ s⁻¹
- Km [9]: 169.0 µM
- Km [10]: 41.7 µM
- kcat [10]: 0.00383 s⁻¹
- kcat/Km [10]: 100 M⁻¹ s⁻¹
- Km [11]: 25.3 ± 5.1 µM
- kcat [11]: 0.772 ± 0.0317 s⁻¹
- kcat/Km [11]: 30000 M⁻¹ s⁻¹
